T1: human LAMA4 LG1-3 fragment displayed on 293 cells (pDisplay) (human, UniProt Q16363 830-1430, limits assumed)
T1 sequence: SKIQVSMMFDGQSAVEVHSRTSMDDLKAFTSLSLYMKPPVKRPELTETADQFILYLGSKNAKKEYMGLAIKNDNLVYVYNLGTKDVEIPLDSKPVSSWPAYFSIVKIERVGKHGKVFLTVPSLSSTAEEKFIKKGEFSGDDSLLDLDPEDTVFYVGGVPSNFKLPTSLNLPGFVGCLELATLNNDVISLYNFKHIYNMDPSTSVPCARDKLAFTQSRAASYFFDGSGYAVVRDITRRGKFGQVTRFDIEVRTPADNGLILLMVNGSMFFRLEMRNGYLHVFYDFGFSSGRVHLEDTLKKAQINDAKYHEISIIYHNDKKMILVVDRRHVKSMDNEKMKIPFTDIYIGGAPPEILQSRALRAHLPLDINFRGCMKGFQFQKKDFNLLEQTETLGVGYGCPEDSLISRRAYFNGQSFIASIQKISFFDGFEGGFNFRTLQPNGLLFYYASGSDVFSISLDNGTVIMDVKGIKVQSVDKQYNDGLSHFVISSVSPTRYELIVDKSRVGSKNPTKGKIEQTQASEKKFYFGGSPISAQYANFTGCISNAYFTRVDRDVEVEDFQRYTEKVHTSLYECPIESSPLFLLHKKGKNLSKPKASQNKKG

T2: recombinant human His-laminin-α4 (R&D Systems) (human, UniProt Q16363-2 826-1816, limits assumed)
T2 construct: range 826-end (only the start, Q826, is stated); Bought protein; also called Human LAMA4; human His-laminin-α4 fragment starting at Q826; not shown: 6x His tag
T2 sequence (looked up): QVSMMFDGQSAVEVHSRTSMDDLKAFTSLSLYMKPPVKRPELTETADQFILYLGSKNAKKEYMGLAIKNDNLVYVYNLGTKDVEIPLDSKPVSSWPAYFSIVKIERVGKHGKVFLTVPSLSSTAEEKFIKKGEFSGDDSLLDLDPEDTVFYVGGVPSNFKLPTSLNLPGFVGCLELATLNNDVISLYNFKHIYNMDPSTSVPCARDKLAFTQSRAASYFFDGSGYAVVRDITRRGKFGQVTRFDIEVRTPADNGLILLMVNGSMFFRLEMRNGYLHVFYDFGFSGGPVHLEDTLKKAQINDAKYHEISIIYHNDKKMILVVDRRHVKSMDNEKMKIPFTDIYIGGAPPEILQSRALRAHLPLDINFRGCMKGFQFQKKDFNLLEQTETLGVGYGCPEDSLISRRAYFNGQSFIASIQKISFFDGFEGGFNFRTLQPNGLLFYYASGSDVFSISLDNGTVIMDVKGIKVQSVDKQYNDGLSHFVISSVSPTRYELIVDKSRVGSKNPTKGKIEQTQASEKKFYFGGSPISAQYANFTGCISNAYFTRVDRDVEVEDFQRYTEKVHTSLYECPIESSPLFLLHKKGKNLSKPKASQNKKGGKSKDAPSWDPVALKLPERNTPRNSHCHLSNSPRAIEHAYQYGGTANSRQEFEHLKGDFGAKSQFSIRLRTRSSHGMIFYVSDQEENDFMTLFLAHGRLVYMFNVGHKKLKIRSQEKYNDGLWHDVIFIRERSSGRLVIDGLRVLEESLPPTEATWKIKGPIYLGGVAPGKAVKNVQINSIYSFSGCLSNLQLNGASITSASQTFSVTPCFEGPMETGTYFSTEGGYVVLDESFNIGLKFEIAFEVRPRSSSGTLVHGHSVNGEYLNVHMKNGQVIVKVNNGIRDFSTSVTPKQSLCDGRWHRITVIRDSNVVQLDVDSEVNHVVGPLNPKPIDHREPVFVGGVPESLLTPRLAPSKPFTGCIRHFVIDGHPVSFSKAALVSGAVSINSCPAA

T3: recombinant mouse His-laminin-α4 (R&D Systems) (mouse, UniProt P97927 826-1816, limits assumed)
T3 construct: range 826-end (only the start, Q826, is stated); Bought protein; also called Murine LAMA4; not shown: 6x His tag
T3 sequence (looked up): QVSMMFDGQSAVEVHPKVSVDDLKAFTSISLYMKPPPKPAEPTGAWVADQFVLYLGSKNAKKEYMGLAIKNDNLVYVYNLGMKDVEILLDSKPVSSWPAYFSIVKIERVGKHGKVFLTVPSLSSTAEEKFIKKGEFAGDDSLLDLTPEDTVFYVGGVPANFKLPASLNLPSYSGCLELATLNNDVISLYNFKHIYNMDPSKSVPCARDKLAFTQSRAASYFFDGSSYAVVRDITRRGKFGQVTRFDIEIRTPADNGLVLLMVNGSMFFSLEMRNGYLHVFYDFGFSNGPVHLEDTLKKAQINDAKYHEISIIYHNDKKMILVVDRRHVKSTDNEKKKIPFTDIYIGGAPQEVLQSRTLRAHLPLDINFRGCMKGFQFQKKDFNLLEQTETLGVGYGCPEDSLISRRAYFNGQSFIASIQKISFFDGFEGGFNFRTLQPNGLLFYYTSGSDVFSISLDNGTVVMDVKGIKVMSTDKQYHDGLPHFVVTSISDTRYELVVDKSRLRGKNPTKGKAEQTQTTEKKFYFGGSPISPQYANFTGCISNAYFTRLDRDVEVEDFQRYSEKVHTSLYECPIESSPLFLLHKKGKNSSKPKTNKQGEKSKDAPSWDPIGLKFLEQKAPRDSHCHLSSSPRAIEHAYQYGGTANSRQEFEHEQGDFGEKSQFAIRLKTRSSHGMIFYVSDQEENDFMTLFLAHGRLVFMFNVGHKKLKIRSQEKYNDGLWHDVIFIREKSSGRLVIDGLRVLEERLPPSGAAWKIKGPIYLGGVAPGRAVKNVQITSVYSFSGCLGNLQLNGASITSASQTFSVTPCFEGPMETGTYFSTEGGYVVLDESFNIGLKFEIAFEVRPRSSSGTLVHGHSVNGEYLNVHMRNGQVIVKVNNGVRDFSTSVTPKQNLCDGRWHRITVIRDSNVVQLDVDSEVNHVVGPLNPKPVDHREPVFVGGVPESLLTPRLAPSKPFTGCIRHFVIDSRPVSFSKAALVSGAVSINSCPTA


Tests used:
[1] = molecular target: recombinant LG4-5 of LAMA4 coated on ELISA plates; test: cell-based or functional assay
[2] = molecular target: laminin 411 (LAMA4 in complex with gamma1 and beta1 chains); test: cell-based or functional assay
[3] = molecular target: T1, human LAMA4 LG1-3 fragment displayed on …; test: flow cytometry on 293 cells displaying LAMA4 fragments (pDisplay)
Protocol: Monoclonal antibodies against the LG4-5 modules of the G domain of LAMA4 were generated as described in Materials and Methods. The specific binding between the monoclonal antibodies and the LG4-5 modules of the G domain of LAMA4 was confirmed by assessing the monoclonal antibodies' ability to stain LAMA4-fragment-displaying human embryonic kidney 293 cells by flow cytometry. Fluorescent signal was assessed via flow cytometric analyses and plotted as mean fluorescence intensity (MFI) as shown in FIG. 1. A LG1-3-specific LAMA4 antibody was able to bind 293 cells displaying LG1-5 and LG1-3, but not LG4-5 of the LAMA4 protein. Conversely, clones 6C12, 13G10, and 15F7 were able to specifically bind 293 cells displaying LG1-5 and LG4-5, but not LG1-3.
Human LAMA4 G-domains 1-5 and variants were cloned into pDisplay expression construct (Life Technologies) and transiently transfected into 293 cells using standard procedures. Anti-LAMA4 antibodies were incubated with cells for 30 min at 4° C. and followed by anti-mouse-650 for 30 minutes at 4° C. Cells were analyzed for anti-laminin binding by flow cytometry using standard procedures.

[4] = molecular target: T2, recombinant human His-laminin-α4 (R&D …); test: SPR (Biacore T200); Fab or captured-IgG format not given
[5] = molecular target: T3, recombinant mouse His-laminin-α4 (R&D …); test: as above

inhibition of LAMA4-mediated WM-266-4 human melanoma cell adhesion (antibody at 20 ug/ml) [1] [%] | inhibition of laminin-411-induced pAkt activation (pAkt/Akt ratio by immunoblot, WM266.4 cells; 20 ug/ml 15F7, 10 ug/ml laminin 411) [2] [%] | binding result [3] | Kd [4] [nM] | koff [4] [s⁻¹] | kon [4] [M⁻¹ s⁻¹] | Kd [5] [nM] | koff [5] [s⁻¹] | kon [5] [M⁻¹ s⁻¹] | Binder
≥ 35 | ~50 | no binding | 0.684 | 0.000781 | 1.14e+06 | 0.627 | 0.000658 | 1.05e+06 | mouse monoclonal antibody 15F7 (antibody, V domains shown, Mouse hybridoma antibody; Mouse IgG1 is used as its control; also called m15F7; LG4-5-specific antibody 15F7) VH: QVQLQQSGTELARPGAAVKLSCKASGYTFTSYGLSWVKQRAGQGLEWIGEIFPRSGNTYYNEKFKGKATLTADKSSSTAYMELRSLTSEDSAVYFCARGVRSPGAMDYWGQGTSVTVSS VL: DIQMTQSSSSFSVSLGDRVTITCKASEDIYNRLAWYQQKPGNAPRLLISGATSLETGVPSRFSGSGSGKDYTLSITSLQTEDVATYYCQQYWSIPYTFGGGTNLEIKR
≥ 35 | – | no binding | 24.4 | 0.0074 | 302000 | 11.9 | 0.00449 | 378000 | mouse monoclonal antibody 13G10 (antibody, V domains shown) VH: QVQLQQSGAELARPGASVKLSCKASGYTFTNYGISWVKQRTGQGLEWIGAIYPRSGNTYYNEKFKGKATLTADKSSSTAYMELRSLTSEDSAVYFCARERDYGSSYALDYWGQGTSVTVSS VL: DIQMTQSSSSFSVSLGDRVTITCKASEDIYNRLAWYQQKPGNAPRLLISGATSLETGVPSRFTGSGSGKDYTLSITSLQTEDVATYYCQQYWSPPRTFGGGTKLEIKR
≥ 35 | – | no binding | 3.11 | 0.00102 | 328000 | 2.38 | 0.00111 | 469000 | mouse monoclonal antibody 6C12 (antibody, V domains shown) VH: QVQLQQPGAELVKPGASVKLSCKASGYTFTTYWMHWVKQRPGQGPEWIGMIHPYSGAINYNEKFKSKATLTVDKSSSTAYMQLSSLTSEDSAVYYCVKQLRLLYYFDYWGQGTTLTVSS VL: DIVMTQSPSSLTVTAGEKVTMSCKSRQSLLNSGNQKNYLTWYQQKPGQPPKVLIYWASTRESGVPDRFTGSGSGTDFTLTISSVQAEDLAVYYCQNDYSYPLTFGAGTKLELKR

— US20150259408A1 (PROTHENA BIOSCIENCES, published 2015)
